Test results taken from PMC4836274, “Cytokine-Like Factor 1, an Essential Facilitator of Cardiotrophin-Like Cytokine:Ciliary Neurotrophic Factor Receptor α Signaling and sorLA-Mediated Turnover” (Molecular and Cellular Biology, 2016).

T1: recombinant soluble ciliary neurotrophic factor receptor α (human), P26992
T1 chain: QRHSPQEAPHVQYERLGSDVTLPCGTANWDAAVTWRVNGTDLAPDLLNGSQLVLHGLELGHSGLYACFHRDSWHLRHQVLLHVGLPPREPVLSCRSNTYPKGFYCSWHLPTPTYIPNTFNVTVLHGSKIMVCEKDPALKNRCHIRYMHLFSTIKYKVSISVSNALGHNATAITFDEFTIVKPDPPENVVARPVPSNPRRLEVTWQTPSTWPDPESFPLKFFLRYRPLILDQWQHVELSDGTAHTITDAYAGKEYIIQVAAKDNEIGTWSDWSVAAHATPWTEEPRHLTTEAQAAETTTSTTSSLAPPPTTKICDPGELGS

T2: sorLA Vps10p-D (human)
T2 chain: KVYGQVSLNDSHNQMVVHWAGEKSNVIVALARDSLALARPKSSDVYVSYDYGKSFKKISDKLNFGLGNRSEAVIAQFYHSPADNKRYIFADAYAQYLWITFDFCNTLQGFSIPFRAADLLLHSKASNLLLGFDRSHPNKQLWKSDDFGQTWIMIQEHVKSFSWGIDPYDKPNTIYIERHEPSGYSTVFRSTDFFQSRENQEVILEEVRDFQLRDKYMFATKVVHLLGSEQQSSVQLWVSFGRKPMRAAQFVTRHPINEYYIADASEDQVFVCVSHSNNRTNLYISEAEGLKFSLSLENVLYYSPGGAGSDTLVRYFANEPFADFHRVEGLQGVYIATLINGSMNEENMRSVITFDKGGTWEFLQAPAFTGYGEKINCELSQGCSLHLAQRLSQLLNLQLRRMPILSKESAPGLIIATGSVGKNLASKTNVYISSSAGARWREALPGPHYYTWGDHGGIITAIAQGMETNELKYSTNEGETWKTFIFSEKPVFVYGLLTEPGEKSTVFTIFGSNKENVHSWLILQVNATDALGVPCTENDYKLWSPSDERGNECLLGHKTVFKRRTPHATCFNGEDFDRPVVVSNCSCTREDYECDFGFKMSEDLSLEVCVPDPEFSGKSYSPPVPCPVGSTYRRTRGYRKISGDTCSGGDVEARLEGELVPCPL

B1: CLF-1–His (His-tagged cytokine-like factor-1) (natural protein, human, UniProt O75462 38-422, looked up)
chain: AHTAVISPQDPTLLIGSSLLATCSVHGDPPGATAEGLYWTLNGRRLPPELSRVLNASTLALALANLNGSRQRSGDNLVCHARDGSILAGSCLYVGLPPEKPVNISCWSKNMKDLTCRWTPGAHGETFLHTNYSLKYKLRWYGQDNTCEEYHTVGPHSCHIPKDLALFTPYEIWVEATNRLGSARSDVLTLDILDVVTTDPPPDVHVSRVGGLEDQLSVRWVSPPALKDFLFQAKYQIRYRVEDSVDWKVVDDVSNQTSCRLAGLKPGTVYFVQVRCNPFGIYGSKKAGIWSEWSHPTAASTPRSERPGPGGGACEPRGGEPSSGPVRRELKQFLGWLKKHAYCSNLSFRLYDQWRAWMQKSHKTRNQDEGILPSGRRGTARGPAR
notes: signal peptide in the construct; human CLF-1 coding cDNA (ImaGenes) amplified from the start codon to the C terminus, secreted into the medium; The second codon of the forward primer reads GCC (Ala); this lies in the signal peptide; The introduction gives 385 amino acids for human CLF-1; also called His-tagged CLF-1; source: HEK293 cells transfected, purified from serum-free medium (Talon resin) …
B2: cardiotrophin-like cytokine:cytokine-like factor-1 heterodimer (complex, human)
chain 1: LNRTGDPGPGPSIQKTYDLTRYLEHQLRSLAGTYLNYLGPPFNEPDFNPPRLGAETLPRATVDLEVWRSLNDKLRLTQNYEAYSHLLCYLRGLNRQAATAELRRSLAHFCTSLQGLLGSIAGVMAALGYPLPQPLPGTEPTWTPGPAHSDFLQKMDDFWLLKELQTWLWRSAKDFNRLKKKMQPPAAAVTLHLGAHGF
chain 2: B1 chain
notes: cardiotrophin-like cytokine (CLC), human, subunit of the bought recombinant heterodimer; cytokine-like factor-1 (CLF-1; cytokine receptor-like factor 1), human, subunit of the bought recombinant heterodimer; also called CLC:CLF-1; His-tagged CLC:CLF-1; source: bought: R&D Systems (insect cells)
B3: cardiotrophin-like cytokine (ligand, human, UniProt Q9UBD9 28-225, looked up)
chain: B2 chain 1
notes: cardiotrophin-like cytokine (CLC), human recombinant; also called CLC; source: bought: R&D Systems (bacteria)
B4: recombinant soluble ciliary neurotrophic factor receptor α (receptor, human, UniProt P26992 23-342, looked up)
chain: T1 chain
notes: CNTF receptor α, human, soluble recombinant form; also called sCNTFRα; soluble CNTFRα; source: bought: R&D Systems

Tests used:
[1] = target: T1, recombinant soluble ciliary …; test: SPR; Biacore 3000, CM5 chip; sCNTFRα immobilised at 66 to 86 fmol/mm^2; 25°C; 10 mM HEPES, 150 mM NaCl, 1.5 mM CaCl2, 1 mM EGTA, 0.005% Tween 20, pH 7.4; Langmuir 1:1 model, global fitting; conditions: remark: other sources report otherwise
[2] = target: T3, soluble sorLA (entire luminal part of sorLA) (human, UniProt Q92673 82-2137); test: SPR; Biacore 3000, CM5 chip; soluble sorLA (entire luminal part) immobilised at 66 to 86 fmol/mm^2; 25°C; 10 mM HEPES, 150 mM NaCl, 1.5 mM CaCl2, 1 mM EGTA, 0.005% Tween 20, pH 7.4; Langmuir 1:1 model, global fitting; conditions: both partners purified
T3 construct: sorLA, human cDNA, the entire luminal (extracellular) part; also called luminal domain of sorLA; ectodomain of sorLA

[3] = target: full-length sorLA in transfected HEK293 cells (human, UniProt Q92673 82-2214); test: cell-based or functional assay
[4] = target: B4; test: SPR; Biacore 3000, CM5 chip; sCNTFRα immobilised at 66 to 86 fmol/mm^2; 25°C; 10 mM HEPES, 150 mM NaCl, 1.5 mM CaCl2, 1 mM EGTA, 0.005% Tween 20, pH 7.4; Langmuir 1:1 model, global fitting; conditions: both partners purified
sorLA Vps10p-D = target: T2, sorLA Vps10p-D; test: SPR
[5] = target: T3, soluble sorLA (entire luminal part of …); test: SPR; immobilised sorLA preincubated with buffer or with 5 μM inhibitor (sorLA propeptide or RAP) before the ligand was added; conditions: both partners purified
[6] = target: B2; test: SPR; Biacore 3000, CM5 chip; sCNTFRα immobilised at 66 to 86 fmol/mm^2; 25°C; 10 mM HEPES, 150 mM NaCl, 1.5 mM CaCl2, 1 mM EGTA, 0.005% Tween 20, pH 7.4; Langmuir 1:1 model, global fitting; conditions: both partners purified

T3 sequence (Q92673 82-2137): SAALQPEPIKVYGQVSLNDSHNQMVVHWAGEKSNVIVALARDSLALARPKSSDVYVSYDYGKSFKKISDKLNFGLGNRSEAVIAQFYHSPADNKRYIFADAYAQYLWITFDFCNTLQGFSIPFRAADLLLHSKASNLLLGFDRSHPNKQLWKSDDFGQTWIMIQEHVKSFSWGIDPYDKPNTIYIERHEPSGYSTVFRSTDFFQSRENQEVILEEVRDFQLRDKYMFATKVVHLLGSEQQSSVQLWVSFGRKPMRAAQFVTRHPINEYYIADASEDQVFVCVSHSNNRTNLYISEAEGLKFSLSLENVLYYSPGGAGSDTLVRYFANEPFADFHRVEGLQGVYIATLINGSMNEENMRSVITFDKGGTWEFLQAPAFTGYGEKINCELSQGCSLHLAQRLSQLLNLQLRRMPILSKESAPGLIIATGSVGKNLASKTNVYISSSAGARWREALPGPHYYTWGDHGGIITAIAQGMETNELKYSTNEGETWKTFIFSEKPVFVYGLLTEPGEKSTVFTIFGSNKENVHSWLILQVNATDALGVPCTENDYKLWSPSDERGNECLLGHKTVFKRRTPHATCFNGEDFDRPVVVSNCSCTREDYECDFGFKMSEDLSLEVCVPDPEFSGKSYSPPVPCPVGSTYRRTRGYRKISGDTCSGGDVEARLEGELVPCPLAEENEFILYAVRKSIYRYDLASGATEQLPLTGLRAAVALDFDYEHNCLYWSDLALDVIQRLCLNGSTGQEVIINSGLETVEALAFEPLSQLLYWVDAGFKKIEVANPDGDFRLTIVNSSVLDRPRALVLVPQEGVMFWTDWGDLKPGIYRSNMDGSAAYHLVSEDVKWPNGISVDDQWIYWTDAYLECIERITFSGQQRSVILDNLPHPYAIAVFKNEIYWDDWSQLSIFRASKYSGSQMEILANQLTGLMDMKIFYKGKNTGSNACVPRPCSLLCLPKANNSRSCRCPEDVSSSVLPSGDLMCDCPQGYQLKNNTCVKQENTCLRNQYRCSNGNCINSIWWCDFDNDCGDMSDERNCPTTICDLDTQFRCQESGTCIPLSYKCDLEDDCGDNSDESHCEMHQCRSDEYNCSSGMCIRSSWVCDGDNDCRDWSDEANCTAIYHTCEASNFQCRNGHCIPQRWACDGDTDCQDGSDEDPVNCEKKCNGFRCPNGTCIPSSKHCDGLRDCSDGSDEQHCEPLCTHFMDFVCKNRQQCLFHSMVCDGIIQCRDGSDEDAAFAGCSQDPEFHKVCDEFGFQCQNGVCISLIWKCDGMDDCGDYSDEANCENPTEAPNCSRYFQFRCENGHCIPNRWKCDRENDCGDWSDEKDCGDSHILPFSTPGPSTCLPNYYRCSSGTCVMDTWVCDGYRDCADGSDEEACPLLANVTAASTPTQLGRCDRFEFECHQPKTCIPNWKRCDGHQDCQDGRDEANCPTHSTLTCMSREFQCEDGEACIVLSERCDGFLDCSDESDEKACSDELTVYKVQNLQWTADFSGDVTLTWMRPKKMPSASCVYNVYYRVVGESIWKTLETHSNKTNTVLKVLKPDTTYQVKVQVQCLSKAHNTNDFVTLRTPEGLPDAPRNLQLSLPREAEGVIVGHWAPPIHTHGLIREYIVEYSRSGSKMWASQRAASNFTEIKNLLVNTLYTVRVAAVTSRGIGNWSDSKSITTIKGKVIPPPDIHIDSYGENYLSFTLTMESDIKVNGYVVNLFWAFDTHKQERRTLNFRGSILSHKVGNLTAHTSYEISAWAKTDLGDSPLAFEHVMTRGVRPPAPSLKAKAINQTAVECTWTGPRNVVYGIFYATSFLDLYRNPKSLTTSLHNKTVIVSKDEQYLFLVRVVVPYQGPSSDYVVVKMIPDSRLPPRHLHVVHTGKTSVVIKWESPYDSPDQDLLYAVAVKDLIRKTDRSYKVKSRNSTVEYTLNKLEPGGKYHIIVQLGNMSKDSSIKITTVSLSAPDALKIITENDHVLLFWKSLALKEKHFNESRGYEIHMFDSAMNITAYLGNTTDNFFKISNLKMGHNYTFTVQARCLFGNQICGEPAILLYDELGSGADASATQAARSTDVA
Sequence of full-length sorLA in transfected HEK293 cells (Q92673 82-2214): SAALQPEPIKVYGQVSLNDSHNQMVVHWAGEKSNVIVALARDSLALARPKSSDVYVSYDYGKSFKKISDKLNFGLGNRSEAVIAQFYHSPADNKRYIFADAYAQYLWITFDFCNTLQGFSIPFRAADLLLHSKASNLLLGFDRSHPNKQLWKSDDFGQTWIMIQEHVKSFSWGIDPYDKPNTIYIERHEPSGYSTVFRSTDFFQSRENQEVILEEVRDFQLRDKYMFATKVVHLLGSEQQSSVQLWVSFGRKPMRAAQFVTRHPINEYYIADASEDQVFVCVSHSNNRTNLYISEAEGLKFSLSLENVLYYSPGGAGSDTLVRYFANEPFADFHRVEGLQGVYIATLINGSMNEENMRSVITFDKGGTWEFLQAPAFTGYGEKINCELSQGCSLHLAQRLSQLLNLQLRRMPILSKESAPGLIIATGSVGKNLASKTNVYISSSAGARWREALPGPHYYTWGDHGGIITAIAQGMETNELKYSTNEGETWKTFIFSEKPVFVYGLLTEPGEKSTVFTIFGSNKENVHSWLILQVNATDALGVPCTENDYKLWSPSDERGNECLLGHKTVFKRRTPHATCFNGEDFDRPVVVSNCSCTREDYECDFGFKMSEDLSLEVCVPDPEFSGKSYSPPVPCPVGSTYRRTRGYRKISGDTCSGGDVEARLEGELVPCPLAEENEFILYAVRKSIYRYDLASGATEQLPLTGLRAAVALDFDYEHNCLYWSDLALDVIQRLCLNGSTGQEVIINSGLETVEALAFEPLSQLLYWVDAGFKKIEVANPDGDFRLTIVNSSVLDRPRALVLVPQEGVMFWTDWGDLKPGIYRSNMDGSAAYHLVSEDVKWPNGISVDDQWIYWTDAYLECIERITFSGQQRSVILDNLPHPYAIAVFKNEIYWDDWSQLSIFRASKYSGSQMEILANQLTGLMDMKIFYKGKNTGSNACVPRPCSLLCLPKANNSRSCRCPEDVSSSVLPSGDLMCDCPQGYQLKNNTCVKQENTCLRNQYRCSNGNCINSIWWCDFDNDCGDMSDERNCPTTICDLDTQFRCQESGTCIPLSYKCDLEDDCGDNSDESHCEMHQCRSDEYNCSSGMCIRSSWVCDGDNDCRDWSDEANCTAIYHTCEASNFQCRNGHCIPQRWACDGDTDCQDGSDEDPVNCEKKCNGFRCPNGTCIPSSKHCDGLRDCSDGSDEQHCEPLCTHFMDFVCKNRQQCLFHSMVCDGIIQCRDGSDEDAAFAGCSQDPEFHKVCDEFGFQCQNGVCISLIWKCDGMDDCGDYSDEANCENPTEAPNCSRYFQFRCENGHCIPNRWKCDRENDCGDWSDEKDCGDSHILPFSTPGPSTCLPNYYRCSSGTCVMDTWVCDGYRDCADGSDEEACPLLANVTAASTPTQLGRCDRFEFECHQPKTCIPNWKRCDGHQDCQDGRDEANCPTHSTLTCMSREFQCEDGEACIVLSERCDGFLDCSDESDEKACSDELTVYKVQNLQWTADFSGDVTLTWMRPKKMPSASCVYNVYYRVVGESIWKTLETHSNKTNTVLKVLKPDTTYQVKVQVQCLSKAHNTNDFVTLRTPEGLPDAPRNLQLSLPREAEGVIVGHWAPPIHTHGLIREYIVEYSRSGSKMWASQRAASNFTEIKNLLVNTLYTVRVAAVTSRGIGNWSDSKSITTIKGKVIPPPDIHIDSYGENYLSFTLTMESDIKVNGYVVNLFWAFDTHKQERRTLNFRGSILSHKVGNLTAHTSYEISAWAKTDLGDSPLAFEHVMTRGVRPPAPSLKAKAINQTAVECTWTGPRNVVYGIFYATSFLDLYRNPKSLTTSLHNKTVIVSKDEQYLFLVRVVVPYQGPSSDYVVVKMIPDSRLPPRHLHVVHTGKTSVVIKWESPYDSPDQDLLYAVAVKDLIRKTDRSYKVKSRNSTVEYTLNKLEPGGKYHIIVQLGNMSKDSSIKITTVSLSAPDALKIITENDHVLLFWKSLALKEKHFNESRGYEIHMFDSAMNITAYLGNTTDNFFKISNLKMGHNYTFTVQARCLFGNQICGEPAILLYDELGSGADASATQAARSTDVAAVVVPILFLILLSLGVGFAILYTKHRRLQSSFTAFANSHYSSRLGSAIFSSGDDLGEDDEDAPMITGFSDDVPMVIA

Binder: B1
- Kd [1]: 4 nM
- Kd [2]: 4 nM

Binder: B2
- pSTAT3 in CNTFRα-deficient Ba/F3 cells (gp130/LIFRβ) stimulated with CLC:CLF-1 and sCNTFRα, sorLA transfectants against untransfected cells [3]: ~4 fold
- Kd [2]: 5 nM

Binder: B3
- Kd [4]: 66 nM

Binder: B4
- Kd (sorLA Vps10p-D): ~14 nM
- binding result [5]: binds
- Kd [6]: 0.3 nM
